Results on nine molecules are retold here after patent publication CN116284426A (SUNSHINE GUOJIAN PHARMACEUTICAL SHANGHAI CO LTD, dated 2023).

Experiment [1] concerns the target T1, GUCY2C on tumour cells (CW2, CW2-GCC#1, T84) (human, UniProt P25092 24-1073). As to the kind of experiment: cell-based or functional assay.
Experiment [2] addresses T1, GUCY2C on tumour cells (CW2, CW2-GCC#1, …). As to the kind of experiment: cell-based or functional assay. The source holds these as a separate data set.
Experiment [3] concerns the target T2, CD3ε-ECD-his (UniProt P07766 23-126).
T2 construct: extracellular domain; also called CD3ε蛋白
As to the kind of experiment: ELISA, CD3ε-ECD-his coated; reference SP34. For orientation: An ELISA detects its analyte on a solid surface through an enzyme-linked reagent.

The target in experiment [4] is T2, CD3ε-ECD-his. Nature of the experiment: ELISA, CD3ε-ECD-his coated at 1 ug/mL (Table 19).
Experiment [5] concerns the target T3, GUCY2C-His蛋白 (human GUCY2C extracellular region with C-terminal 6xHis) (human, UniProt P25092 24-430).
T3 construct: extracellular domain; Made in HEK-293F with an unspecified N-terminal signal peptide; also called 人GUCY2C-His蛋白
Nature of the experiment: ELISA, GUCY2C-His coated, anti-human IgG Fab HRP (Table 9).

In experiment [6] the target is T4, GUCY2C-Fc蛋白 (human GUCY2C extracellular region fused to human IgG1 Fc) (human, UniProt P25092 24-430).
T4 construct: extracellular domain; Made in HEK-293F with an unspecified N-terminal signal peptide; also called 人GUCY2C-Fc蛋白; not shown: human IgG1 Fc at the C-terminus in place of the 6xHis tag
Nature of the experiment: ELISA, GUCY2C-Fc coated, anti-human IgG Fab HRP (Table 11).

Experiment [7] concerns the target T4, GUCY2C-Fc蛋白 (human GUCY2C extracellular …). Nature of the experiment: ELISA, GUCY2C-Fc coated, anti-human IgG Fab HRP (Table 12).
The target is the same in experiment [8]. As to the kind of experiment: ELISA, GUCY2C-Fc coated, anti-human IgG Fab HRP (Table 18).
Experiment [9] deals with T3, GUCY2C-His蛋白 (human GUCY2C …). As to the kind of experiment: ELISA, GUCY2C-His coated, anti-human IgG Fab HRP (Table 10).
Experiment [10] has the same target. As to the kind of experiment: ELISA, GUCY2C-His coated, anti-human IgG Fab HRP (Table 17).
For experiment [11], the target named is T2, CD3ε-ECD-his. Nature of the experiment: ELISA, CD3ε-ECD-his coated at 1 ug/mL, anti-human IgG Fab HRP (Table 14).
For experiment [12], the target named is T4, GUCY2C-Fc蛋白 (human GUCY2C extracellular …). As to the kind of experiment: indirect ELISA, GUCY2C-Fc coated at 1 ug/mL, anti-mouse HRP.
For experiment [13], the target named is T1, GUCY2C on tumour cells (CW2, CW2-GCC#1, …). As to the kind of experiment: flow cytometry on CW2 human colon cancer cells, anti-mouse PE.
Experiment [14] deals with T3, GUCY2C-His蛋白 (human GUCY2C …). As to the kind of experiment: ELISA, GUCY2C-His coated at 0.1 ug/mL, anti-mouse HRP (Table 4).
For experiment [15] the target is unchanged. As to the kind of experiment: ELISA, GUCY2C-His coated, anti-human IgG Fc HRP.
For experiment [16] the target is unchanged. As to the kind of experiment: ELISA, GUCY2C-His coated at 0.1 ug/mL, anti-mouse HRP (Table 3).

T4 sequence (P25092 24-430 limits assumed): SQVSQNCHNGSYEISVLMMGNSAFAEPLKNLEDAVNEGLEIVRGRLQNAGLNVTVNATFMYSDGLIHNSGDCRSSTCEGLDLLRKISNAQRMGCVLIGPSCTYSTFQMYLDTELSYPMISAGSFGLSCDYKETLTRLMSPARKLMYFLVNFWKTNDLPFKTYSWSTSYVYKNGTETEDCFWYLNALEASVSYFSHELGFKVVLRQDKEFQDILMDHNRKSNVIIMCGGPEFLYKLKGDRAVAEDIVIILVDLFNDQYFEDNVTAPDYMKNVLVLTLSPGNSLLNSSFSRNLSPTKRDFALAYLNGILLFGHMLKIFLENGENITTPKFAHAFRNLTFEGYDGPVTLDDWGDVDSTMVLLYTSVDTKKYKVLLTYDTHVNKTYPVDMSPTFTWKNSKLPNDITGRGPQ
T1 sequence (P25092 24-1073): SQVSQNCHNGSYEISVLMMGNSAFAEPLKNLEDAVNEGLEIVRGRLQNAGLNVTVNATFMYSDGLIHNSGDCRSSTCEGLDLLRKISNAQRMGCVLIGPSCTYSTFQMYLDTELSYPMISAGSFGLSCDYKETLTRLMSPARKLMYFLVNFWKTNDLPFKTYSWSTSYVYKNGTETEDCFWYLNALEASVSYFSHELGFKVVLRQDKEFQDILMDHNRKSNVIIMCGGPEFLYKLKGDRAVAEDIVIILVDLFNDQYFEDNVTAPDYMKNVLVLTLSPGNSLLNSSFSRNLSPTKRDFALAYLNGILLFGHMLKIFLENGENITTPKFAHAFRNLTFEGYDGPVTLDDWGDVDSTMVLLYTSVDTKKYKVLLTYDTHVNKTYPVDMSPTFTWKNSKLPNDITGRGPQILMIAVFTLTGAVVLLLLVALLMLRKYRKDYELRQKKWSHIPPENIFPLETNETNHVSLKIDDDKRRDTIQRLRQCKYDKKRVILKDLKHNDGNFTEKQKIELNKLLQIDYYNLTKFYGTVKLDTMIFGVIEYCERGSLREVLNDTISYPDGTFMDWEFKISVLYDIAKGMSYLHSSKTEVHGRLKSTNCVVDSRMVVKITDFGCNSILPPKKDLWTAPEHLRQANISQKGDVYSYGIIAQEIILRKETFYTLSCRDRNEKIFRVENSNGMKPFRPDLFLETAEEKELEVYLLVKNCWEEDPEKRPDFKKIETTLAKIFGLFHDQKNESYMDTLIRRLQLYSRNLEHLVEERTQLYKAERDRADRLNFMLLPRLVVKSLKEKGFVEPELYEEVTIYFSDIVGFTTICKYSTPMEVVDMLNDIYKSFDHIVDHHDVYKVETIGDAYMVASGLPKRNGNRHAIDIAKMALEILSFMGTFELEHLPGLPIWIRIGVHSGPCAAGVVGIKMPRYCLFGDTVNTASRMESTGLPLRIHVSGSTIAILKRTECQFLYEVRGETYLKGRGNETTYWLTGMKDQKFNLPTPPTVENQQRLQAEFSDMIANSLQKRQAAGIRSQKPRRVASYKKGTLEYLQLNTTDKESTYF
T3 sequence (P25092 other isoform, or with tags, fused parts or gaps): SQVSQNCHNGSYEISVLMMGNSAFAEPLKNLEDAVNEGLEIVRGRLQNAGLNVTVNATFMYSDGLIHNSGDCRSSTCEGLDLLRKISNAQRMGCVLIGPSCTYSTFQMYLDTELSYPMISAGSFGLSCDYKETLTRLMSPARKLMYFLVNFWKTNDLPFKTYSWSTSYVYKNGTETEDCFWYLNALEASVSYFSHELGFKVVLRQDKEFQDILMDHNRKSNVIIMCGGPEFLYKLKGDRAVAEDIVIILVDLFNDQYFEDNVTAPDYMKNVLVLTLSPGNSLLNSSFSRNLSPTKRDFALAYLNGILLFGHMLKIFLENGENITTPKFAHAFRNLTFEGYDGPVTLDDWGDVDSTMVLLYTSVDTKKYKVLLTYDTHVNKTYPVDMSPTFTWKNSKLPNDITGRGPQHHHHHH
T2 sequence (P07766 other isoform, or with tags, fused parts or gaps): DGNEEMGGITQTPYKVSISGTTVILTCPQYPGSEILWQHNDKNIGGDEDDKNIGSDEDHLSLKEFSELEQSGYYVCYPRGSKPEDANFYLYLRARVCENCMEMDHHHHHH

B1: SP4VHL-32H2 (bispecific antibody, human IgG1, kappa)
heavy: not shown
light: DVVMTQSPLSLPVTLGQPASISCRSSQSLVYNNGNTYLHWYQQRPGQSPRLLIYKVSNRFSGVPDRFSGSGSGTDFTLKISRVEAEDVGVYFCSQSTHVPLTFGQGTKVEIKRTVAAPSVFIFPPSDEQLKSGTASVVCLLNNFYPREAKVQWKVDNALQSGNSQESVTEQDSKDSTYSLSSTLTLSKADYEKHKVYACEVTHQGLSSPVTKSFNRGEC
notes: The anti-CD3 scFv (VH-L-VL of humanized SP34) sits at the N-terminus of the heavy chain; also called 结构2
On to B1, for which the “IC50 of T-cell-mediated killing of CW2 cells (CTG, E:T 5:1, 96 h)” value (“IC50 … (CTG, E:T 5:1, 96 h)” below) in [1] came to 0.46 nM. Moreover, the “IC50 of T-cell-mediated killing of T84 cells” value in experiment [2] is 0.004 nM. For the same molecule, the “fold weaker affinity than SP34” value with CD3ε-ECD-his [3] was approximately 5 fold. In addition, the 50% effective concentration (EC50) in the experiment with CD3ε-ECD-his [4] turned out to be 0.792 nM; in experiment [5] it was 1.86 nM; in [6], 1 nM; in [7] it was 1.19 nM; in experiment [8] it was 2.83 nM; in [9] it was 2.09 nM. The EC50 came out at 1.84 nM in experiment [10] and 0.59 nM with CD3ε-ECD-his [11].

B2: 32H2CH1-SP4VHL (bispecific antibody)
heavy: not shown
light: DVVMTQSPLSLPVTLGQPASISCRSSQSLVYNNGNTYLHWYQQRPGQSPRLLIYKVSNRFSGVPDRFSGSGSGTDFTLKISRVEAEDVGVYFCSQSTHVPLTFGQGTKVEIKRTVAAPSVFIFPPSDEQLKSGTASVVCLLNNFYPREAKVQWKVDNALQSGNSQESVTEQDSKDSTYSLSSTLTLSKADYEKHKVYACEVTHQGLSSPVTKSFNRGEC
notes: also called 结构7
For the molecule B2, the “IC50 … (CTG, E:T 5:1, 96 h)” value in [1] came to 0.05 nM. Further, the “fold weaker affinity than SP34” value with CD3ε-ECD-his [3] is approximately 2 fold. In addition, the EC50 with CD3ε-ECD-his [4] stood at 0.309 nM; in experiment [5] it was 0.29 nM; in experiment [6] it was 0.24 nM; in [7] it was 0.33 nM; in [8], 0.521 nM; in experiment [9] it was 0.23 nM. Also, the concentration for a half-maximal effect (EC50) worked out at 0.188 nM in experiment [10] and 0.37 nM with CD3ε-ECD-his [11].

B3: 32H2Fab-SP4VHL (bispecific antibody)
heavy: EVQLVESGGGLVKPGGSLRLSCAASGFSFRTYAMSWVRQAPGKSLEWVATISSGSSYIYYPDSVKGRFTVSRDNAKNSLYLQMNSLRAEDTAVYYCTCYRMETFEYWGQGTLVTVSSASTKGPSVFPLAPSSKSTSGGTAALGCLVKDYFPEPVTVSWNSGALTSGVHTFPAVLQSSGLYSLSSVVTVPSSSLGTQTYICNVNHKPSNTKVDKKVEPKSCGGGGSGGGGSGGGGSEVQLVESGGGLVQPGGSLRLSCAASGFTFNTYAMNWVRQAPGKGLEWVARIRSKYNNYATYYADSVKDRFTISRDDSKNTLYLQMNSLRAEDTAVYYCVRHGNFGNSYVSWFAYWGQGTLVTVSSGGGGSGGGGSGGGGSGGGGSQAVVTQEPSLTVSPGGTVTLTCRSSTGAVTTSNYANWVQQKPGQAPRGLIGGTNKRAPGVPARFSGSLLGGKAALTLSGAQPEDEAEYYCALWYSNLWVFGQGTKVEIK
light: DVVMTQSPLSLPVTLGQPASISCRSSQSLVYNNGNTYLHWYQQRPGQSPRLLIYKVSNRFSGVPDRFSGSGSGTDFTLKISRVEAEDVGVYFCSQSTHVPLTFGQGTKVEIKRTVAAPSVFIFPPSDEQLKSGTASVVCLLNNFYPREAKVQWKVDNALQSGNSQESVTEQDSKDSTYSLSSTLTLSKADYEKHKVYACEVTHQGLSSPVTKSFNRGEC
notes: also called 32H2Fab-SPVHL; 结构10
B3: the “IC50 … (CTG, E:T 5:1, 96 h)” value in [1] was found to be 51 nM. Also, in experiment [2], the “IC50 of T-cell-mediated killing of T84 cells” value stood at 1.25 nM. For the same molecule, the half-maximal effective concentration (EC50) in experiment [5] stood at 35.5 nM; in [6] it was 5.08 nM; in [7] it was 1.04 nM; in experiment [9], 30.1 nM; with CD3ε-ECD-his [11] it was 6.12 nM.

B4: 10D7A7 (antibody, V domains shown)
VH: QVQLKQSGPGLVQPSQSLSITCTVSGFSLTNYGVHWVRQSPGKGLEWLGVIWSGGRKDYNAAFISRLNITKDNSKSQVFFTMNSLHSDDTAIYYCARHGTYPYWYFALWGAGTSVTISS
VL: DIQMTQTTSSLSASLGDRVTISCRASQDISNYLNWYQQKPDGTFKLLVYYTSRLQSGVPSRFSGSGSGTLYSLTISTLEQEDVATYFCQQGKTLPFSFGGGTRLEIK
Consider B4, for which the results for the EC50 in [12], in [13] and in [14] were 0.0307 µg/mL, 0.137 µg/mL and 0.8 nM, respectively.

B5: 10D7-ch (antibody, V domains shown)
VH: QVQLKQSGPGLVQPSQSLSITCTVSGFSLTNYGVHWVRQSPGKGLEWLGVIWSGGRKDYNAAFISRLNITKDNSKSQVFFTMNSLHSDDTAIYYCARHGTYPYWYFALWGAGTSVTISS
VL: DIQMTQTTSSLSASLGDRVTISCRASQDISNYLNWYQQKPDGTFKLLVYYTSRLQSGVPSRFSGSGSGTLYSLTISTLEQEDVATYFCQQGKTLPFSFGGGTRLEIKR
Molecule B5 displayed a concentration giving a half-maximal response (EC50) in [15] of 0.113 nM. That is a sub-nanomolar value.

B6: 32H2G1A1 (antibody, V domains shown)
VH: EVMLVESGGDLVKPGGSLKLSCAASGFSFRTYAMSWVRQSPEKSLEWVATISSGSSYIYYPDSVKGRFTVFRDNAKNTLYLQMSSLRSEDSAIYYCTCYRMETFEYWGQGTTLTVSS
VL: DVVMTQTPLSLPVSLGDEASISCRSSQSLVYNNGNTYLHWYLQKPGQSPKLLIYKVSNRFSGVPDRFSGSGSGTDFTLKISRVEAEDLGVYFCSQSTHVPLTFGAGTKLELK
For B6, the results for the concentration for a half-maximal effect (EC50) in experiment [12], in [13] and in [14] were 0.00709 µg/mL, 9.6 µg/mL and 0.26 nM, respectively.

B7: 32H2-ch (antibody, V domains shown)
VH: EVMLVESGGDLVKPGGSLKLSCAASGFSFRTYAMSWVRQSPEKSLEWVATISSGSSYIYYPDSVKGRFTVFRDNAKNTLYLQMSSLRSEDSAIYYCTCYRMETFEYWGQGTTLTVSS
VL: DVVMTQTPLSLPVSLGDEASISCRSSQSLVYNNGNTYLHWYLQKPGQSPKLLIYKVSNRFSGVPDRFSGSGSGTDFTLKISRVEAEDLGVYFCSQSTHVPLTFGAGTKLELKR
Take B7: in experiment [15], the half-maximal effective concentration (EC50) came out at 0.141 nM.

B8: 43D11B1D2 (antibody, V domains shown)
VH: DVKLVESGGVLVKLGGSLKLSCAASGFTFSGYFMSWVRQTPEKRLELVAAINSDGGSTYYPDTVKGRFTISRDNAKNTLYLQMSSLKSEDTALYYCARLARYLYAMDYWGQGTSVTVSS
VL: QIVLTQSPAIMSASPGEKVTMTCSASSSVSYMYWYQQKPGSSPRLLIYDTSNLASGVPVRFSGSGSGTSYSLTISRMEAEDAATYYCQQWTSSSWTFGGGTKLEIK
As to B8, the concentration giving a half-maximal response (EC50) is 0.018 µg/mL in experiment [12], 0.365 µg/mL in [13] and 0.99 nM in [16].

B9: 43D11-ch (antibody, V domains shown)
VH: DVKLVESGGVLVKLGGSLKLSCAASGFTFSGYFMSWVRQTPEKRLELVAAINSDGGSTYYPDTVKGRFTISRDNAKNTLYLQMSSLKSEDTALYYCARLARYLYAMDYWGQGTSVTVSS
VL: QIVLTQSPAIMSASPGEKVTMTCSASSSVSYMYWYQQKPGSSPRLLIYDTSNLASGVPVRFSGSGSGTSYSLTISRMEAEDAATYYCQQWTSSSWTFGGGTKLEIKR
For B9, in [15], the EC50 was 5.19 nM.

One may read the EC50 as the concentration needed to bring the measured effect to its halfway point. A high value points to weaker potency.
